One block for each molecule: values may come before it.
Legend:
Experiment in all cases: cryo-EM structure
[1] = target: S. pombe fatty acid synthase subunit FAS1/ß (S. pombe (endogenous in K972 cells)) (UniProt Q9UUG0)
[2] = target: S. cerevisiae fatty acid synthase subunit FAS1/ß (S. cerevisiae (endogenous in W303 or BY4742 cells)) (UniProt P07149)
[3] = target: the molecule itself

stoichiometry N [1]: 3
Molecule: S. pombe fatty acid synthase subunit FAS1/ß, Q9UUG0 1-2073

stoichiometry N [2]: 3
Molecule: S. cerevisiae fatty acid synthase subunit FAS1/ß, P07149 1-2051

B1: S. pombe fatty acid synthase subunit FAS2/α (enzyme, S. pombe (endogenous in K972 cells), UniProt Q10289 1-1842, looked up)
chain: MRPEVEQELAHTLLLELLAYQFASPVRWIETQDVILSPPVSAERIVEIGPSPTLAGMAKRTLKLKYENMDAALSINREVLCYSKDAREIYYNFEDEVADEPAEAPASTSSTPKVETAAAAAPAATPAPAPAQTSAPAAALPDEPPKALEVLHTLVAQKLKKSIEEVSPQKSIKDLVGGKSTLQNEILGDLQKEFGATPEKPEEVPLDELGAIMQSSFNGSLGKQSSSLISRMISSKMPGGFNNSAVRGYLGNRYGLGPGRLESVLLLALTMEPASRLGSEADAKAWLDSVAQKYAARNGVTLSSPTAEGGSSSGSAAVIDEETFKKLTKNNTMLVTQQLELFARYLNKDLRAGQKAQVAEKVISDTLRAQLDLWNEEHGEFYASGIAPIFSPLKARVYDSDWNWARQDALKMFFDIIFGRLKHVDTEIVARCISVMNRSNPTLLEFMQYHIDHCPAEKGETYQLAKTLGQQLIDNCKSVIDAPPVFKNVNHPTAPSTTIDERGNLNYEEIPRPGVRKLTHYVTEMAKGGKLPTESKNKAKVQNDLARIYRIIKSQNKMSRSSKLQIKQLYGQVLHALSLPLPSSNDEQTPVKETIPFLHIRKKSVDGNWEFNKSLTGTYLDVLESGAKNGITYQDKYALVTGAGAGSIGAQIVEGLLAGGAKVVVTTSRFSRKVTEFYQSLYTRHGSRGSCLIVVPFNQGSKTDVEALIDYIYDEKKGLGWNLDYIVPFAAIPENGREIDGIDSRSEFAHRIMLTNILRLLGAVKSQKASRGMDTRPAQVILPLSPNHGTFGNDGLYSESKLGLETLFNRWYSESWANYLTICGAVIGWTRGTGLMAPNNIVSQGIEKYGVRTFSQSEMAFNILGLMSQKVVDLCQSEPIYANLNGGLELLPDLKDLSTRLRTELLETAEIRRAVAAETAFDHSITNGPDSEAVFQKTAIQPRANLKFNFPKLKPYEALSHLSDLRGMVDLEKVPVVTGFSEVGPWGNSRTRWDMECYGEFSLEGCVEIAWIMGLIKNFNGKGKDGKPYSGWVDTKTGEPVDDKDVKAKYEKYILEHCGIRIIEAELFHGYNPEKKELLQEVVIDHDLEPFEASKEAAHEFKLRHGDQVEIFEIPDSTEWSVRFKRGTSMLIPKALRFDRFVAGQIPLGWDPKRYGIPDDIISQVDPTTLYVLVSTVEALVASGITDPYECYKYIHVSELGNTVGSGIGGMSALRGMYKDRWTDKPVQKDILQESFINTANAWINMLLLSASGPIKTPVGACATAVESVDAAVDLITSGKARICISGGYDDFSEEGSYEFANMGATSNAAKETERGRTPQEMSRPATSTRDGFMESQGAGVQIIMQAKLAIEMGVPIHGIVGYVSTAMDKQGRSVPAPGQGILTGAREIATKTPLPIVDLKFRSRQLQRRRSQIGEWAEREYLYLEEELDAMKVQNPDLDLEAYRIERINVIKEEVVRQEKEALNTFGNEFWKRDPTIAPIRGALAVWGLTIDDLGVASFHGTSTKANEKNECDVIDSQLTHLGRSKGNAVYGVFQKYLTGHSKGGAGAWMLNGALQILRSGFVPGNRNADNIDEYLARFDRVMFPSEGIQTDGIKAASVTAFGFGQVGGQVIVIHPDYIYGVIDEATYNAYKAKTAARYKASYRYTHDALVYNNLVRAKDSPPYTKEQEKAVYLNPLARASKSKAGTWTFPATLPAESDISKTNETTRTLQSLTTSLTNSNENVGVDVELVSAISIDNETFIERNFTDTERKYCFAAPNPQASFAGRWSAKEAVFKSLGISGKGAAAPLKDIEIISSESGAPEVVLHGEAAKAATTAGVKSVSVSISHDDNQSVSVALAHK
stoichiometry N [3]: 6

B2: S. cerevisiae fatty acid synthase subunit FAS2/α (enzyme, UniProt P19097 1-1887, looked up)
chain: MKPEVEQELAHILLTELLAYQFASPVRWIETQDVFLKDFNTERVVEIGPSPTLAGMAQRTLKNKYESYDAALSLHREILCYSKDAKEIYYTPDPSELAAKEEPAKEEAPAPTPAASAPAPAAAAPAPVAAAAPAAAAAEIADEPVKASLLLHVLVAHKLKKSLDSIPMSKTIKDLVGGKSTVQNEILGDLGKEFGTTPEKPEETPLEELAETFQDTFSGALGKQSSSLLSRLISSKMPGGFTITVARKYLQTRWGLPSGRQDGVLLVALSNEPAARLGSEADAKAFLDSMAQKYASIVGVDLSSAASASGAAGAGAAAGAAMIDAGALEEITKDHKVLARQQLQVLARYLKMDLDNGERKFLKEKDTVAELQAQLDYLNAELGEFFVNGVATSFSRKKARTFDSSWNWAKQSLLSLYFEIIHGVLKNVDREVVSEAINIMNRSNDALIKFMEYHISNTDETKGENYQLVKTLGEQLIENCKQVLDVDPVYKDVAKPTGPKTAIDKNGNITYSEEPREKVRKLSQYVQEMALGGPITKESQPTIEEDLTRVYKAISAQADKQDISSSTRVEFEKLYSDLMKFLESSKEIDPSQTTQLAGMDVEDALDKDSTKEVASLPNKSTISKTVSSTIPRETIPFLHLRKKTPAGDWKYDRQLSSLFLDGLEKAAFNGVTFKDKYVLITGAGKGSIGAEVLQGLLQGGAKVVVTTSRFSKQVTDYYQSIYAKYGAKGSTLIVVPFNQGSKQDVEALIEFIYDTEKNGGLGWDLDAIIPFAAIPEQGIELEHIDSKSEFAHRIMLTNILRMMGCVKKQKSARGIETRPAQVILPMSPNHGTFGGDGMYSESKLSLETLFNRWHSESWANQLTVCGAIIGWTRGTGLMSANNIIAEGIEKMGVRTFSQKEMAFNLLGLLTPEVVELCQKSPVMADLNGGLQFVPELKEFTAKLRKELVETSEVRKAVSIETALEHKVVNGNSADAAYAQVEIQPRANIQLDFPELKPYKQVKQIAPAELEGLLDLERVIVVTGFAEVGPWGSARTRWEMEAFGEFSLEGCVEMAWIMGFISYHNGNLKGRPYTGWVDSKTKEPVDDKDVKAKYETSILEHSGIRLIEPELFNGYNPEKKEMIQEVIVEEDLEPFEASKETAEQFKHQHGDKVDIFEIPETGEYSVKLLKGATLYIPKALRFDRLVAGQIPTGWNAKTYGISDDIISQVDPITLFVLVSVVEAFIASGITDPYEMYKYVHVSEVGNCSGSGMGGVSALRGMFKDRFKDEPVQNDILQESFINTMSAWVNMLLISSSGPIKTPVGACATSVESVDIGVETILSGKARICIVGGYDDFQEEGSFEFGNMKATSNTLEEFEHGRTPAEMSRPATTTRNGFMEAQGAGIQIIMQADLALKMGVPIYGIVAMAATATDKIGRSVPAPGKGILTTAREHHSSVKYASPNLNMKYRKRQLVTREAQIKDWVENELEALKLEAEEIPSEDQNEFLLERTREIHNEAESQLRAAQQQWGNDFYKRDPRIAPLRGALATYGLTIDDLGVASFHGTSTKANDKNESATINEMMKHLGRSEGNPVIGVFQKFLTGHPKGAAGAWMMNGALQILNSGIIPGNRNADNVDKILEQFEYVLYPSKTLKTDGVRAVSITSFGFGQKGGQAIVVHPDYLYGAITEDRYNEYVAKVSAREKSAYKFFHNGMIYNKLFVSKEHAPYTDELEEDVYLDPLARVSKDKKSGSLTFNSKNIQSKDSYINANTIETAKMIENMTKEKVSNGGVGVDVELITSINVENDTFIERNFTPQEIEYCSAQPSVQSSFAGTWSAKEAVFKSLGVKSLGGGAALKDIEIVRVNKNAPAVELHGNAKKAAEEAGVTDVKVSISHDDLQAVAVAVSTKK
stoichiometry N [3]: 6
